Source: the supplement of paper PMC9233669
Variants at the floor of the assay were thinned out.

Assays:
biotinyl-Phe-oxazolone = assay: self-aminoacylation, catalytic enhancement (BFO) (fold over background); higher = more active; k-Seq, kA / k0A0; sequences stand for … in GGGAAUGGAUCCACAUCUACGAAUUC…UUCACUGCAGACUUGACGAAGCUG
How it was run: (§1)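 The uncatalyzed rate is the low-activity peak of a bimodal Gaussian fit, and catalytic enhancement is median kA divided by it. The kA values came from pseudo-first-order fits, with 1000 bootstraps, of per-sequence fraction reacted measured by streptavidin capture, triplicate qPCR and Illumina sequencing. Mutagenized RNA pools with a 21-nt variable region (0.43 μM) were reacted with each biotinyl-aminoacyl-oxazolone at 2–1250 μM in 50 μL HEPES/NaCl/KCl/MgCl2/CaCl2 buffer with 5% acetonitrile, pH 6.9–7.0, for 90 minutes at room temperature.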

biotinyl-Ile-oxazolone = assay: self-aminoacylation, catalytic enhancement (BIO) (fold over background); higher = more active; k-Seq, kA / k0A0; sequences stand for … in GGGAAUGGAUCCACAUCUACGAAUUC…UUCACUGCAGACUUGACGAAGCUG
How it was run: as §1

biotinyl-Met-oxazolone = assay: self-aminoacylation, catalytic enhancement (BMO) (fold over background); higher = more active; k-Seq, kA / k0A0; sequences stand for … in GGGAAUGGAUCCACAUCUACGAAUUC…UUCACUGCAGACUUGACGAAGCUG
How it was run: as §1

biotinyl-Val-oxazolone = assay: self-aminoacylation, catalytic enhancement (BVO) (fold over background); higher = more active; k-Seq, kA / k0A0; sequences stand for … in GGGAAUGGAUCCACAUCUACGAAUUC…UUCACUGCAGACUUGACGAAGCUG
How it was run: as §1

biotinyl-Leu-oxazolone = assay: self-aminoacylation, catalytic enhancement (BLO) (fold over background); higher = more active; k-Seq, kA / k0A0; sequences stand for … in GGGAAUGGAUCCACAUCUACGAAUUC…UUCACUGCAGACUUGACGAAGCUG
How it was run: as §1

biotinyl-Trp-oxazolone = assay: self-aminoacylation, catalytic enhancement (BWO) (fold over background); higher = more active; k-Seq, kA / k0A0; sequences stand for … in GGGAAUGGAUCCACAUCUACGAAUUC…UUCACUGCAGACUUGACGAAGCUG
How it was run: as §1

Row | Sequence | self-aminoacylation (biotinyl-Phe-oxazolone) | self-aminoacylation (biotinyl-Ile-oxazolone) | self-aminoacylation (biotinyl-Met-oxazolone) | self-aminoacylation (biotinyl-Val-oxazolone) | self-aminoacylation (biotinyl-Leu-oxazolone) | self-aminoacylation (biotinyl-Trp-oxazolone)
1 | AUUCAUCCAGGUCAUCGGGUG [Fam2.2 aminoacylation ribozyme variant] | 47.8 | 4.96 | 7.87 | 4.75 | 9.76 | 6.96
2 | AUUCAUCUAGGUCAACGGGUG [Fam2.2 aminoacylation ribozyme variant] | 29.6 | 2.6 | 4.08 | 2.61 | 5.32 | 3.23
3 | AUUCAUCUAGGUCAUCGUGUG [Fam2.2 aminoacylation ribozyme variant] | 4.8 | 1.05 | 1.16 | 0.915 | 1.23 | 0.882
4 | AUUCAUCUAGGUCAUUGGGUG [Fam2.2 aminoacylation ribozyme variant] | 26.7 | 2.67 | 4.21 | 2.77 | 4.98 | 4.24
5 | AUUCAUCUAGGUUAUCGGGUG [Fam2.2 aminoacylation ribozyme variant] | 28.8 | 2.37 | 3.02 | 2.44 | 3.86 | 3.36
6 | AUUCAUCUGGGUCAUCGGGUG [Fam2.2 aminoacylation ribozyme variant] | 53.2 | 5.22 | 7.57 | 4.92 | 10.3 | 7.66
7 | AUUCAUCUUGGUCAUCGGGUG [Fam2.2 aminoacylation ribozyme variant] | 50.1 | 4.97 | 7.46 | 4.56 | 9.58 | 7.39
8 | AUUCAUGUAGGUCAUCGGGUG [Fam2.2 aminoacylation ribozyme variant] | 33.9 | 3 | 5.45 | 3.43 | 6.54 | 5.09
9 | AUUCCCAUAGGUCAUCGGGUG [Fam2.2 aminoacylation ribozyme variant] | 185 | 15.6 | 23.9 | 13.4 | 32.7 | 22
10 | AUUCCCCUAAGUCAUCGGGUG [Fam2.2 aminoacylation ribozyme variant] | 498 | 38.6 | 59.1 | 37.9 | 85.8 | 62.2
11 | AUUCCCCUACGUCAUCGGGUG [Fam2.2 aminoacylation ribozyme variant] | 127 | 10.9 | 16 | 11 | 20.9 | 16
12 | AUUCCCCUAGGUAAUCGGGUG [Fam2.2 aminoacylation ribozyme variant] | 90.8 | 7.5 | 10.7 | 6.58 | 16.3 | 11.6
13 | AUUCCCCUAGGUCAUCGAGUG [Fam2.2 aminoacylation ribozyme variant] | 66.1 | 7.79 | 11 | 7.52 | 15 | 12.6
14 | AUUCCCCUAGGUCAUCGGCUG [Fam2.2 aminoacylation ribozyme variant] | 30.9 | 8.03 | 6.91 | 7.07 | 7.58 | 6.44
15 | AUUCCCCUAGGUCAUCGGGUU [Fam2.2 aminoacylation ribozyme variant] | 36.7 | 6.34 | 5.77 | 6.74 | 8.02 | 7.29
16 | AUUCCCCUAGGUCAUCGGUUG [Fam2.2 aminoacylation ribozyme variant] | 11.7 | 3.4 | 3.19 | 3.38 | 3.94 | 2.16
17 | AUUCCCCUAGGUCAUCGUGUG [Fam2.2 aminoacylation ribozyme variant] | 20.7 | 3.28 | 3.02 | 4.25 | 4.37 | 4.05
18 | AUUCCCCUAGGUUAUCGGGUG [Fam2.2 aminoacylation ribozyme variant] | 187 | 12.9 | 20 | 13.3 | 27.6 | 20
19 | AUUCCCCUAGUCAUCGAGUGA [Fam2.1 aminoacylation ribozyme variant] | 66.1 | 6.5 | 11.5 | 7.18 | 11.6 | 15.3
20 | AUUCCCCUAGUUCAUCGGGUG [Fam2.2 aminoacylation ribozyme variant] | 56.5 | 6.72 | 7.78 | 6.85 | 10.1 | 10.2
21 | AUUCCCCUCGGUCAUCGGGUG [Fam2.2 aminoacylation ribozyme variant] | 211 | 14.8 | 21.1 | 14 | 30.8 | 22.6
22 | AUUCCCCUGGACAUCGAGUGA [Fam2.1 aminoacylation ribozyme variant] | 35.4 | 3.41 | 6 | 3.45 | 6.77 | 7.13
23 | AUUCCCCUGGUCAUCGAGAGA [Fam2.1 aminoacylation ribozyme variant] | 3.27 | 1.46 | 1.68 | 1.47 | 1.17 | 1.96
24 | AUUCCCCUGGUCAUCGAGUAA [Fam2.1 aminoacylation ribozyme variant] | 1.42 | 1.55 | 1.69 | 1.7 | 1.35 | 1.47
25 | AUUCCCCUGGUCAUCGAGUGA [Fam2.1 aminoacylation ribozyme variant] | 45.7 | 4 | 6.93 | 4.37 | 6.99 | 8.4
26 | AUUCCCCUGGUCAUCGAUUGA [Fam2.1 aminoacylation ribozyme variant] | 1.13 | 1.59 | 1.55 | 1.79 | 1.73 | 2.47

Row | Sequence | self-aminoacylation (biotinyl-Phe-oxazolone) | self-aminoacylation (biotinyl-Ile-oxazolone) | self-aminoacylation (biotinyl-Met-oxazolone) | self-aminoacylation (biotinyl-Val-oxazolone) | self-aminoacylation (biotinyl-Leu-oxazolone) | self-aminoacylation (biotinyl-Trp-oxazolone)
27 | AUUCCCCUGGUCAUUGAGUGA [Fam2.1 aminoacylation ribozyme variant] | 64.3 | 4.73 | 8.79 | 4.5 | 8.32 | 11.7
28 | AUUCCCCUGGUUAUCGAGUGA [Fam2.1 aminoacylation ribozyme variant] | 82.2 | 5.07 | 10.2 | 5.49 | 9.8 | 14.5
29 | AUUCCCCUUGUCAUCGAGUGA [Fam2.1 aminoacylation ribozyme variant] | 70.6 | 6.44 | 11.1 | 7.45 | 11.4 | 14.9
30 | AUUCCCUUAGGUCAUCGGGUG [Fam2.2 aminoacylation ribozyme variant] | 295 | 19.3 | 33.4 | 20.2 | 44.3 | 30.7
31 | AUUCCGCUGGUCAUCGAGUGA [Fam2.1 aminoacylation ribozyme variant] | 45.4 | 3.34 | 6.08 | 3.7 | 6.79 | 8.05
32 | AUUCGCAUAGGUCAUCGGGUG [Fam2.2 aminoacylation ribozyme variant] | 66 | 5.95 | 9.49 | 7.08 | 12.2 | 9.43
33 | AUUCGCCCAGGUCAUCGGGUG [Fam2.2 aminoacylation ribozyme variant] | 42 | 4.14 | 4.75 | 3.96 | 6.46 | 5.2
34 | AUUCGCCUACGUCAUCGGGUG [Fam2.2 aminoacylation ribozyme variant] | 44.1 | 3.15 | 5.54 | 3.86 | 7.11 | 4.12
35 | AUUCGCCUAGCUCAUCGGGUG [Fam2.2 aminoacylation ribozyme variant] | 12.7 | 2.6 | 2.28 | 2.59 | 2.99 | 2.87
36 | AUUCGCCUAGGUCAUCAGGUG [Fam2.2 aminoacylation ribozyme variant] | 7.29 | 1.48 | 1.97 | 1.53 | 2.02 | 2.53
37 | AUUCGCCUAGGUCAUCGAGUG [Fam2.2 aminoacylation ribozyme variant] | 29.3 | 8.77 | 11.7 | 7.39 | 15.9 | 7.17
38 | AUUCGCCUAGGUCAUCGGGUA [Fam2.2 aminoacylation ribozyme variant] | 391 | 25.1 | 46.9 | 23.4 | 68.8 | 35.3
39 | AUUCGCCUAGGUCAUCGUGUG [Fam2.2 aminoacylation ribozyme variant] | 3.31 | 1.04 | 1.45 | 1.05 | 1.35 | 0.823
40 | AUUCGCCUAGGUCAUCUGGUG [Fam2.2 aminoacylation ribozyme variant] | 19.3 | 2.24 | 2.96 | 2.23 | 3.87 | 3.3
41 | AUUCGCCUAGGUCAUGGGGUG [Fam2.2 aminoacylation ribozyme variant] | 31.7 | 3.88 | 5.41 | 4.43 | 6.48 | 5.56
42 | AUUCGCCUAGGUCCUCGGGUG [Fam2.2 aminoacylation ribozyme variant] | 46.8 | 4.84 | 6.35 | 4.56 | 8.24 | 6.48
43 | AUUCUCCCAGGUCAUCGGGUG [Fam2.2 aminoacylation ribozyme variant] | 90 | 6.87 | 10.2 | 6.91 | 12.8 | 9.06
44 | AUUCUCCUAGCUCAUCGGGUG [Fam2.2 aminoacylation ribozyme variant] | 23.2 | 3.32 | 3.24 | 3.75 | 3.79 | 4.24
45 | AUUCUCCUAGGUCAUCGAGUG [Fam2.2 aminoacylation ribozyme variant] | 6.65 | 3.62 | 5.07 | 3.77 | 6.3 | 3.73
46 | AUUCUCCUAGGUCAUCGGGUA [Fam2.2 aminoacylation ribozyme variant] | 29.6 | 4.71 | 7.07 | 4.84 | 8.96 | 7.31
47 | AUUCUCCUGGUCAUCGAGUGA [Fam2.1 aminoacylation ribozyme variant] | 33.7 | 3.67 | 6.14 | 3.89 | 6.5 | 7.91
48 | AUUCUCUUAGGUCAUCGGGUG [Fam2.2 aminoacylation ribozyme variant] | 77.6 | 5.7 | 9.08 | 5.53 | 12.5 | 9.36
49 | AUUCUUCUAGGUCAUCGGGUG [Fam2.2 aminoacylation ribozyme variant] | 50.3 | 4.52 | 7.87 | 5.28 | 9.07 | 6.98
50 | AUUGACCUACGUCAUCGGGUG [Fam2.2 aminoacylation ribozyme variant] | 40.6 | 3.13 | 4.72 | 3.81 | 6.43 | 5.9
51 | AUUGACCUAGGGCAUCGGGUG [Fam2.2 aminoacylation ribozyme variant] | 17 | 3.23 | 3.13 | 3.28 | 3.63 | 4.66
